B1: PRT-577 (protein)
chain: MANQEIRYSKATPSTITSVWTKGVTPPENFIYNEDVLHAPYLANQGWYDITKTFNGKDDLLCGAATAGNMLHWWFDQNKEQIERYLKEHPEKQKINFNGEQMFDVKEAIDTKDSQTNSKLFEYFKDKAFPYLSTKHLGVFPDHVIDMFINGYRLSLTNHGPTPVKEQTKDPRGGIFDAVFTRGDQSKLLTSRHDFKEKTLNEISQLIKQELTEGKALGLSHTYANVRINHVINLWGADFNAEGNLEAIYVTDSDSNASIGMKKYYVGVNSAGKVAISAKEIEGDNIGAQVLGLFTLSTGQDIWQQTNLEHHHHHH
B2: PRT-585 (protein)
chain: B1 chain with N29Q, L42I, E88K, Q205D, Q304E
B3: PRT-594 (protein)
chain: MANQEIRYSEETPSTITSVWTKGVTPPTDFIQNEDVLHAPYIANQGWYDITKTFNGKDDLLCGAATAGNMLHWWFDQNKEQIENYLKKHPEKQKINFNGEQMFDVKEAIDTKDSQLDSALFEYFKDKAFPYLSTKHLGVFPDHVIDMFINGYRLSLTNHGPTPVKRGTKDPRGGIFDAVFTRGDQSKLLTSRHDFKEKTLNEISDLIKQELTEGKALGLSHTYANVRINHVINLWGADFNAEGNLEAIYVTDSDSNASIGMKKYYVGVNSAGKVAISAKEIEGDNIGAQVLGLFTLSTGQDIWNQTNLEHHHHHH
B4: PRT-435 (protein)
chain: MSQTEDSESLQRLRDIEDFQAEKEKQNVVYTKWLDGVDVKDHDFRKIVDGNIAYYATPLLNGRGFYDINKDFNRDSDKCAAAVAANMFHYWLDRNRDNVDRFLRQNPEKHGIIELPDGQLKLSDFLNTYESDDGYRDKSKLFDFISNNFNGPVWTDKLLDNYINGYAYNYKYGRTIEDPTKNTSKINFFKEVFNEKILTNNHSIRNQNEFSVLLSEALYTGKAIGLSYGPAGLRHSLGHIISVWGADLDADGNVVAIYVTDSDDKKLTIGDERVGLKRYKISTDDEGRLRLTAYEETHNTGGQIRGLWTLDTGKQAWADYFDKTEQTGTDQAEQ
B5: PRT-440 (protein)
chain: B4 chain with E24K, F210L
B6: PRT-441 (protein)
chain: B4 chain with E24K, L233T
B7: PRT-445 (protein)
chain: B4 chain with E24K, P179S

Changes are numbered by the printed parent chain.

The target of one series is pooled human IgG (human IgG1, 2, 3 and 4).
Turning to B1, the Enzyme Activity Endpoint Assay (purified): Fab'2 stood at 566 ng/µL, the Enzyme Activity Endpoint Assay (purified): Fc came to 338 ng/µL, the Enzyme Activity Endpoint Assay (purified): IgG came out at 0 ng/µL and the Enzyme Activity Endpoint Assay (purified): scIgG came out at 230 ng/µL.
For the protein B2, the Enzyme Activity Endpoint Assay (purified): Fab'2 was determined as 574 ng/µL, the Enzyme Activity Endpoint Assay (purified): Fc is 303 ng/µL, the Enzyme Activity Endpoint Assay (purified): IgG was 0 ng/µL and the Enzyme Activity Endpoint Assay (purified): scIgG was 229 ng/µL.
With B3, the Enzyme Activity Endpoint Assay (purified): Fab'2 is 138 ng/µL, the Enzyme Activity Endpoint Assay (purified): Fc worked out at 271 ng/µL, the Enzyme Activity Endpoint Assay (purified): IgG was 123 ng/µL and the Enzyme Activity Endpoint Assay (purified): scIgG turned out to be 487 ng/µL.
B4 registered an Enzyme Activity Endpoint Assay (purified): Fab′2 of 35 ng/µL, an Enzyme Activity Endpoint Assay (purified): Fc of 205 ng/µL, an Enzyme Activity Endpoint Assay (purified): IgG of 625 ng/µL and an Enzyme Activity Endpoint Assay (purified): scIgG of 380 ng/µL.
Protein B5 yielded an Enzyme Activity Endpoint Assay (purified): Fab'2 of 575 ng/µL, an Enzyme Activity Endpoint Assay (purified): Fc of 328 ng/µL, an Enzyme Activity Endpoint Assay (purified): IgG of 0 ng/µL and an Enzyme Activity Endpoint Assay (purified): scIgG of 245 ng/µL.
In turn, B6 came in with an Enzyme Activity Endpoint Assay (purified): Fab'2 of 514 ng/µL, an Enzyme Activity Endpoint Assay (purified): Fc of 310 ng/µL, an Enzyme Activity Endpoint Assay (purified): IgG of 0 ng/µL and an Enzyme Activity Endpoint Assay (purified): scIgG of 217 ng/µL.
B7 returned an Enzyme Activity Endpoint Assay (purified): Fab'2 of 559 ng/µL, an Enzyme Activity Endpoint Assay (purified): Fc of 330 ng/µL, an Enzyme Activity Endpoint Assay (purified): IgG of 0 ng/µL and an Enzyme Activity Endpoint Assay (purified): scIgG of 259 ng/µL.

A further series addresses pooled human IgG (human IgG1,2,3 and 4).
Turning to B4, the Enzyme Activity Endpoint Assay: Fab′2 was found to be 35 ng/µL, the Enzyme Activity Endpoint Assay: Fc came out at 205 ng/µL, the Enzyme Activity Endpoint Assay: IgG stood at 625 ng/µL and the Enzyme Activity Endpoint Assay: scIgG turned out to be 380 ng/µL.

The values above are taken from patent publication US20250027068.
